The values below come from article PMC3663513.

This experiment has as its target Pseudo-nitzschia multiseries ferritin (Pseudo-nitzschia multiseries). The experiment in a line: crystal structure; crystals of PmFTN grown by vapor diffusion (0.1 M sodium acetate pH 5.5, ammonium sulfate, NaCl), aerobic or anaerobic, soaked in 2 mM Fe(II) or 2 mM zinc sulfate; 24-mer shell built from 8 (P23) or 6 (P42(1)2) subunits in the asymmetric unit.

A word on the stoichiometry N: it is a count of units in the complex or per binding partner. “Pseudo-nitzschia multiseries ferritin (natural protein)” showed a stoichiometry N of 24 subunits.
